Reference: patent publication US20230365705A1 (DYNAMICURE BIOTECHNOLOGY, published 2023)

How the values were obtained:
[1] = biological target: T1, Human CD93 recombinant protein (Sino Biological Inc, Catalog #12589-H08H) (human, UniProt Q9NPY3 22-580); assay: BLI (Octet QKe), biotinylated human CD93 on streptavidin biosensors
T1 construct: Biotinylated (EZ-LINK NHS-PEG4 biotin) in the BLI assays; also called hCD93; His-tagged human CD93
T1 sequence (looked up): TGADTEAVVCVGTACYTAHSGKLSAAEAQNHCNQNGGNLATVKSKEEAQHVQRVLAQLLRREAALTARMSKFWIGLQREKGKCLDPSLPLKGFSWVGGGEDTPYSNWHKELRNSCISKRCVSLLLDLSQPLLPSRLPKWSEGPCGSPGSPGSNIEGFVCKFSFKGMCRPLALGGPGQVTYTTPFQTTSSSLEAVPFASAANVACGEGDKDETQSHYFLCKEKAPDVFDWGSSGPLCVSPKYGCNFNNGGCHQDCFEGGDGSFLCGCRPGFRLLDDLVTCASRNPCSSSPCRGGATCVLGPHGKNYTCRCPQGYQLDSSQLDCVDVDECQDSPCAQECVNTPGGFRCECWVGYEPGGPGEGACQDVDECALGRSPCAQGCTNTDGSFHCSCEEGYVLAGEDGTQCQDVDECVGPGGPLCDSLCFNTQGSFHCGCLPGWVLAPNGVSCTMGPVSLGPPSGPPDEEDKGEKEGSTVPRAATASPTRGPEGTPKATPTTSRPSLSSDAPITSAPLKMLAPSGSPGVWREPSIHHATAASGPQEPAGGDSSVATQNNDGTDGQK
Description: The binding affinity of anti-CD93 antibodies was determined with bio-layer interferometry using Octet QKe (Fortebio). […] Human CD93 recombinant protein (Sino Biological Inc, Catalog #12589-H08H) was biotinylated using EZ-LINK NHS-PEG4 biotin (Thermo Fisher Scientific). Streptavidin biosensors (Fortebio) were used to load biotinylated CD93 protein (300 seconds in 5 μg/ml). Baseline was stabilized for 60 seconds in 1× kinetics buffer (Fortebio) before anti-CD93 antibodies, at a serial dilution, were allowed to associate for 300 seconds with captured protein. Then the sensors were dissociated in 1× kinetics buffer for 600 seconds. […] (FIG. 42).

[2] = biological target: T2, Human CD93 on cells (human CD93 expressing CHO cells; HUVEC, U937 and KG1a cells) (human, UniProt Q9NPY3 22-652); assay: flow cytometry titration, CHO-hCD93 cells
T2 construct: whole, on cells; also called hCD93 expressing CHO cells; hCD93 CHO cells
T2 sequence (looked up): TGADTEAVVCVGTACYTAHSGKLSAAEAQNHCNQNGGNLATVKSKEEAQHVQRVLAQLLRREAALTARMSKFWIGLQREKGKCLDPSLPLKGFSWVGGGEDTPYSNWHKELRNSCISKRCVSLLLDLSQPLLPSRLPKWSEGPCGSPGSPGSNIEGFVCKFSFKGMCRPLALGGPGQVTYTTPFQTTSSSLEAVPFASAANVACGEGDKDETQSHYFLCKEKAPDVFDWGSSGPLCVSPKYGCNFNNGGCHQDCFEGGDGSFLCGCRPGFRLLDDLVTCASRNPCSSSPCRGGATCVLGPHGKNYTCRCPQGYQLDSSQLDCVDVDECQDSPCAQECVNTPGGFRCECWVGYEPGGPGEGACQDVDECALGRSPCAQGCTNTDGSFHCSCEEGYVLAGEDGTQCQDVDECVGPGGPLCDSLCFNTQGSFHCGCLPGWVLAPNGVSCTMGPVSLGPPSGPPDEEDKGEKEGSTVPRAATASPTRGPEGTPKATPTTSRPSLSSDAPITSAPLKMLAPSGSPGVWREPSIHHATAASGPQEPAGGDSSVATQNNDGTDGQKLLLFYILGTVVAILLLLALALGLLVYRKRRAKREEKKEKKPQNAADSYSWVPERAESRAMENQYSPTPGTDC
Description: (§1) Human CD93 expressing CHO cells were detached by incubation with TrypLE reagents (Thermo Fisher), which preserves the integrity of CD93 on the cell surface. Then the cells were incubated with serial diluted anti-CD93 antibodies for 30 minutes at 4° C. After washing by FACS buffer, the cells were incubated with Alexa Fluor 647 conjugated anti-human IgG (Jackson ImmunoResearch) for 30 minutes in 4° C. After washing by FACS buffer twice, the samples were acquired in NovoCyte Flow Cytometer and analyzed by NovoExpress software.

[3] = biological target: T1, Human CD93 recombinant protein (Sino …); assay: BLI (Octet QKe), biotinylated human CD93 on streptavidin biosensors; antibody stored 4 weeks at 40 C
Description: (§2) The binding affinity of anti-CD93 antibodies was determined with bio-layer interferometry using Octet QKe (Fortebio). […] Human CD93 recombinant protein (Sino Biological Inc, Catalog #12589-H08H) was biotinylated using EZ-LINK NHS-PEG4 biotin (Thermo Fisher Scientific). Streptavidin biosensors (Fortebio) were used to load biotinylated CD93 protein (300 seconds in 5 μg/ml). Baseline was stabilized for 60 seconds in 1×kinetics buffer (Fortebio) before anti-CD93 antibodies, at a serial dilution, were allowed to associate for 300 seconds with captured protein. Then the sensors were dissociated in 1× kinetics buffer for 600 seconds. […] (FIG. 41).

[4] = biological target: T2, Human CD93 on cells (human CD93 …); assay: flow cytometry titration, HUVEC cells; antibody stored 4 weeks at 40 C; unit printed as nMM
Description: as §1, with “HUVEC” for “Human CD93 expressing CHO”

[5] = biological target: T1, Human CD93 recombinant protein (Sino …); assay: BLI (Octet QKe), biotinylated human CD93 on streptavidin biosensors; antibody stored 2 weeks at 40 C
Description: as §2

B1: h16E4 (humanized 16E4, VH4+VL6) (antibody, V domains shown)
VH: QVQLVQSGAEVKKPGASVKVSCKASGYTFTSYWMHWVRQAPGQGLEWMGEIDPSASYTYYNQKFKGRVTMTRDKSSSTVYMELSSLTSEDSAVYYCARSVYYGNKYFDVWGAGTTVTVSS
VL: DIQMTQSPSTLSASVGDRVTITCKASQSVDYAGDSYMNWYQQKPGKAPKLLIYAASNLESGVPSRFSGSGSGTEFTLTISSLQPDDFATYYCQQTNEDPRTFGGGTKLEIK
notes: Detected with anti-human IgG, so a human Fc
**Q.** How did the Kd [1] turn out when B1 was run?
**A.** 0.416 nM

**Q.** What about the koff [1] of the same binder?
**A.** 0.000104 s⁻¹

**Q.** What about the kon [1] of the same binder?
**A.** 249000 M⁻¹ s⁻¹

**Q.** And the EC50 [2]?
**A.** 0.388 nM

B2: h7F3 (humanized 7F3, VH3+VL3) (antibody, human IgG1, V domains shown)
VH: QVQLVQSGAEVKKPGASVKVSCKASGYTFTDYEMHWVRQAPGQGLEWMGGIDPETGDTAYNQNFKGRVTMTTDTSTSTAYMELRSLTSDDTAVYYCTNYGNLYYYAMDYWGQGTSVTVSS
VL: EIVLTQSPSSLSASVGDRVTITCRASSSVSSSYLHWYQQKPGKAPKLLIYSTSNLAFGVPSRFSGSGSGTSYTFTISSLQPEDIATYYCQQYSGYPLTFGSGTKLEIK
notes: also called humanized 7F3-hIgG1
**Q.** What does the source list for B2?
**A.** Kd [3]: 0.487 nM; koff [3]: 0.000386 s⁻¹; kon [3]: 793000 M⁻¹ s⁻¹; EC50 [4]: 1.12 nM; Kd [5]: 0.495 nM; koff [5]: 0.000356 s⁻¹; kon [5]: 720000 M⁻¹ s⁻¹
